Among the targets are SARS-CoV-2 WT S-ECD蛋白 (SARS-CoV-2, UniProt P0DTC2 14-1213); SARS-CoV-2 Alpha株S-ECD蛋白 (SARS-CoV-2 Alpha株 (B.1.1.7)); SARS-CoV-2 Beta株S-ECD蛋白 (SARS-CoV-2 Beta株 (B.1.351)); SARS-CoV-2 Gamma株S-ECD蛋白 (SARS-CoV-2 Gamma株 (P.1)); SARS-CoV-2 Delta株S-ECD蛋白 (SARS-CoV-2 Delta株 (B.1.617.2)).
For another experiment, the target named is SARS-CoV-2 Alpha株病毒的S蛋白 (SARS-CoV-2 Alpha株 (B.1.1.7)). Description: cell-based or functional assay.
The next experiment addresses SARS-CoV-2 Beta株病毒的S蛋白 (SARS-CoV-2 Beta株 (B.1.351)). Description: cell-based or functional assay.
The target of another experiment is SARS-CoV-2 Gamma株病毒的S蛋白 (SARS-CoV-2 Gamma株 (P.1)). The experiment can be described thus: cell-based or functional assay.
The next experiment addresses SARS-CoV-2 Delta株病毒的S蛋白 (SARS-CoV-2 Delta株 (B.1.617.2)). Description: cell-based or functional assay.

B1: 全人源抗SARS-CoV-2单克隆抗体ZWD12 (antibody, V domains shown)
VH: EVQLVESGGGLVQPGGTLRLSCVASGFSFSNYWMSWVRQAPGKGLEWVANIKQDGSETHYVDSVKGRFTISRDNAKNSLYLQMNSLRADDTAVYFCVKDRTDWELIRGYFGHWGQGTQITVSS
VL: DIVMTQTPSSLSLSPGDRATLSCRASENIINYLAWYQQRPGQSPRLLIYDASNRATGIPARFSGSGSGTDFTLTISSLEPEDFAVYYCQQRIIWPPYTFGQGTKVDIKR
As to B1, the Kd with SARS-CoV-2 WT S-ECD蛋白 stood at 0.895 nM; with SARS-CoV-2 Alpha株S-ECD蛋白 it was 0.826 nM; with SARS-CoV-2 Beta株S-ECD蛋白 it was 0.991 nM; in the experiment with SARS-CoV-2 Gamma株S-ECD蛋白, 1.42 nM; with SARS-CoV-2 Delta株S-ECD蛋白, 1.91 nM. The koff with SARS-CoV-2 WT S-ECD蛋白 stood at 0.000121 s⁻¹; with SARS-CoV-2 Alpha株S-ECD蛋白, 0.000111 s⁻¹; with SARS-CoV-2 Beta株S-ECD蛋白 it was 0.000102 s⁻¹; in the experiment with SARS-CoV-2 Gamma株S-ECD蛋白, 0.000146 s⁻¹; with SARS-CoV-2 Delta株S-ECD蛋白, 0.000133 s⁻¹. The kon with SARS-CoV-2 WT S-ECD蛋白 is 135000 M⁻¹ s⁻¹; in the experiment with SARS-CoV-2 Alpha株S-ECD蛋白, 134000 M⁻¹ s⁻¹; with SARS-CoV-2 Beta株S-ECD蛋白, 103000 M⁻¹ s⁻¹; with SARS-CoV-2 Gamma株S-ECD蛋白, 102000 M⁻¹ s⁻¹; with SARS-CoV-2 Delta株S-ECD蛋白, 69600 M⁻¹ s⁻¹. Moreover, the “假病毒中和 EC50 (luciferase, HEK293T cells)” value with SARS-CoV-2 Alpha株病毒的S蛋白 stood at 4.11 ng/mL; with SARS-CoV-2 Beta株病毒的S蛋白, 3.56 ng/mL; with SARS-CoV-2 Gamma株病毒的S蛋白, 3.83 ng/mL; with SARS-CoV-2 Delta株病毒的S蛋白, 7.29 ng/mL. The “真病毒中和 EC50 (Vero E6 cells, crystal violet)” value stood at 69 ng/mL with SARS-CoV-2 Beta株病毒的S蛋白 and 79 ng/mL with SARS-CoV-2 Delta株病毒的S蛋白.

In general, Kd refers to the constant that tells how readily two partners part at equilibrium. Read a low Kd as tighter binding. As usually defined, the koff is the first-order rate constant of dissociation. Broadly, the kon is a measure of how fast the partners come together. The low end stands for slower complex formation, the high end for faster complex formation.
